Assay results reported in patent US11325966.

Experiments:
Experiment in all cases: cell-based or functional assay
[1] = target: HIV-1 Env of pseudovirus A07412M1.vrc12 (HIV-1)
[2] = target: HIV-1 Env of pseudovirus 6545.v4.c1 (HIV-1)
[3] = target: HIV-1 Env of pseudovirus 620345.c01 (HIV-1)
[4] = target: HIV-1 Env of pseudovirus BF1266.431a (HIV-1)
[5] = target: HIV-1 Env of pseudovirus 62357_14_D3_4589 (HIV-1)
[6] = target: HIV-1 Env of pseudovirus 3365.v2.c2 (HIV-1)
[7] = target: HIV-1 Env of pseudovirus MS208.A1 (HIV-1)
[8] = target: HIV-1 Env of pseudovirus T255-34 (HIV-1)
[9] = target: HIV-1 Env of pseudovirus HIV-16055-2.3 (HIV-1)
[10] = target: HIV-1 Env of pseudovirus 6540.v4.c1 (HIV-1)
[11] = target: HIV-1 Env of pseudovirus Q259.d2.17 (HIV-1)
[12] = target: HIV-1 Env of pseudovirus HIV-0013095-2.11 (HIV-1)
[13] = target: HIV-1 Env of pseudovirus Q461.e2 (HIV-1)
[14] = target: HIV-1 Env of pseudovirus X1254_c3 (HIV-1)
[15] = target: HIV-1 Env of pseudovirus Ce1176_A3 (HIV-1)
[16] = target: HIV-1 Env of pseudovirus Du422.1 (HIV-1)
[17] = target: HIV-1 Env of pseudovirus C2101.c01 (HIV-1)
[18] = target: HIV-1 Env of pseudovirus Ce703010054_2A2 (HIV-1)
[19] = target: HIV-1 Env of pseudovirus P1981_C5_3 (HIV-1)
[20] = target: HIV-1 Env of pseudovirus 246F C1G (HIV-1)
[21] = target: HIV-1 Env of pseudovirus 191955_A11 (HIV-1)
[22] = target: HIV-1 Env of pseudovirus CNE53 (HIV-1)
[23] = target: HIV-1 Env of pseudovirus 3103.v3.c10 (HIV-1)
[24] = target: HIV-1 Env of pseudovirus CAP45.2.00.G3 (HIV-1)
[25] = target: HIV-1 Env of pseudovirus X1632_S2_B10 (HIV-1)
[26] = target: HIV-1 Env of pseudovirus P0402_c2_11 (HIV-1)
[27] = target: HIV-1 Env of pseudovirus 1006_11_C3_1601 (HIV-1)
[28] = target: HIV-1 Env of pseudovirus R3265.c06 (HIV-1)
[29] = target: HIV-1 Env of pseudovirus 6535.3 (HIV-1)
[30] = target: HIV-1 Env of pseudovirus 3415.v1.c1 (HIV-1)
[31] = target: HIV-1 Env of pseudovirus 3817.v2.c59 (HIV-1)
[32] = target: HIV-1 Env of pseudovirus SC422661.8 (HIV-1)
[33] = target: HIV-1 Env of pseudovirus THRO4156.18 (HIV-1)
[34] = target: HIV-1 Env of pseudovirus 6952.v1.c20 (HIV-1)
[35] = target: HIV-1 Env of pseudovirus WITO4160.33 (HIV-1)
[36] = target: HIV-1 Env of pseudovirus R1166.c01 (HIV-1)
[37] = target: HIV-1 Env of pseudovirus 89-F1_2_25 (HIV-1)
[38] = target: HIV-1 Env of pseudovirus 263-8 (HIV-1)
[39] = target: HIV-1 Env of pseudovirus Ce0393_C3 (HIV-1)
[40] = target: HIV-1 Env of pseudovirus 249M B10 (HIV-1)

354BG8 (antibody)
IC50 in TZM-bl assay [1]: 0.011 µg/mL
IC80 in TZM-bl assay [1]: 0.037 µg/mL
IC50 in TZM-bl assay [2]: > 10 µg/mL
IC80 in TZM-bl assay [2]: > 10 µg/mL
IC50 in TZM-bl assay [3]: > 10 µg/mL
IC80 in TZM-bl assay [3]: > 10 µg/mL
IC50 in TZM-bl assay [4]: > 10 µg/mL
IC80 in TZM-bl assay [4]: > 10 µg/mL
IC50 in TZM-bl assay [5]: > 10 µg/mL
IC80 in TZM-bl assay [5]: > 10 µg/mL
IC50 in TZM-bl assay [6]: 0.057 µg/mL
IC80 in TZM-bl assay [6]: 0.2 µg/mL
IC50 in TZM-bl assay [7]: > 10 µg/mL
IC80 in TZM-bl assay [7]: > 10 µg/mL
IC50 in TZM-bl assay [8]: > 10 µg/mL
IC80 in TZM-bl assay [8]: > 10 µg/mL
IC50 in TZM-bl assay [9]: > 10 µg/mL
IC80 in TZM-bl assay [9]: > 10 µg/mL
IC50 in TZM-bl assay [10]: > 10 µg/mL
IC80 in TZM-bl assay [10]: > 10 µg/mL
IC50 in TZM-bl assay [11]: > 10 µg/mL
IC80 in TZM-bl assay [11]: > 10 µg/mL
IC50 in TZM-bl assay [12]: > 10 µg/mL
IC80 in TZM-bl assay [12]: > 10 µg/mL
IC50 in TZM-bl assay [13]: > 10 µg/mL
IC80 in TZM-bl assay [13]: > 10 µg/mL
IC50 in TZM-bl assay [14]: 0.063 µg/mL
IC80 in TZM-bl assay [14]: 0.239 µg/mL
IC50 in TZM-bl assay [15]: 0.022 µg/mL
IC80 in TZM-bl assay [15]: 0.07 µg/mL
IC50 in TZM-bl assay [16]: 0.047 µg/mL
IC80 in TZM-bl assay [16]: 0.113 µg/mL
IC50 in TZM-bl assay [17]: > 10 µg/mL
IC80 in TZM-bl assay [17]: > 10 µg/mL
IC50 in TZM-bl assay [18]: > 10 µg/mL
IC80 in TZM-bl assay [18]: > 10 µg/mL
IC50 in TZM-bl assay [19]: 0.004 µg/mL
IC80 in TZM-bl assay [19]: 0.013 µg/mL
IC50 in TZM-bl assay [20]: 0.035 µg/mL
IC80 in TZM-bl assay [20]: 0.119 µg/mL
IC50 in TZM-bl assay [21]: > 10 µg/mL
IC80 in TZM-bl assay [21]: > 10 µg/mL
IC50 in TZM-bl assay [22]: 0.013 µg/mL
IC80 in TZM-bl assay [22]: 0.058 µg/mL
IC50 in TZM-bl assay [23]: 0.024 µg/mL
IC80 in TZM-bl assay [23]: 0.061 µg/mL
IC50 in TZM-bl assay [24]: > 10 µg/mL
IC80 in TZM-bl assay [24]: > 10 µg/mL
IC50 in TZM-bl assay [25]: > 10 µg/mL
IC80 in TZM-bl assay [25]: > 10 µg/mL
IC50 in TZM-bl assay [26]: 0.008 µg/mL
IC80 in TZM-bl assay [26]: 0.024 µg/mL
IC50 in TZM-bl assay [27]: 0.002 µg/mL
IC80 in TZM-bl assay [27]: 0.006 µg/mL
IC50 in TZM-bl assay [28]: > 10 µg/mL
IC80 in TZM-bl assay [28]: > 10 µg/mL
IC50 in TZM-bl assay [29]: 0.007 µg/mL
IC80 in TZM-bl assay [29]: 0.022 µg/mL
IC50 in TZM-bl assay [30]: > 10 µg/mL
IC80 in TZM-bl assay [30]: > 10 µg/mL
IC50 in TZM-bl assay [31]: 0.706 µg/mL
IC80 in TZM-bl assay [31]: 4.49 µg/mL
IC50 in TZM-bl assay [32]: 0.058 µg/mL
IC80 in TZM-bl assay [32]: 0.368 µg/mL
IC50 in TZM-bl assay [33]: > 10 µg/mL
IC80 in TZM-bl assay [33]: > 10 µg/mL
IC50 in TZM-bl assay [34]: 0.023 µg/mL
IC80 in TZM-bl assay [34]: 0.086 µg/mL
IC50 in TZM-bl assay [35]: 0.111 µg/mL
IC80 in TZM-bl assay [35]: 0.828 µg/mL
IC50 in TZM-bl assay [36]: > 10 µg/mL
IC80 in TZM-bl assay [36]: > 10 µg/mL
IC50 in TZM-bl assay [37]: > 10 µg/mL
IC80 in TZM-bl assay [37]: > 10 µg/mL
IC50 in TZM-bl assay [38]: 0.416 µg/mL
IC80 in TZM-bl assay [38]: 5.71 µg/mL
IC50 in TZM-bl assay [39]: > 10 µg/mL
IC80 in TZM-bl assay [39]: > 10 µg/mL
IC50 in TZM-bl assay [40]: > 10 µg/mL
IC80 in TZM-bl assay [40]: > 10 µg/mL
